Ends that are not written are not given here. * marks the point of attachment. Nvoc = Nvoc photocleavable protecting (caging) group on the Lys side chain, COc1cc(COC(=O)*)c([N+](=O)[O-])cc1OC
Key:
Type in all cases: cell-based
[1] = target: T1, hKV1.2 (Homo sapiens, UniProt P16389); assay: Photocontrol of KV1.2 current, automated patch-clamp; settings: 100 nM; 365 nm, 45 mW/cm^2, 250 s
T1 construct: expressed in transfected cells; host or cells: CHO (transient)
Method: (§1) HEK293 cells stably expressing the hNaV1.1 (XM_011511604), hNaV1.2 (XM_017004655) or hNaV1.6 (XM_011538651) channels, CHO cells transiently expressing hKV1.2 (NG_027997.2) and CHO cells stably expressing hNaV1.7 (XM_011511618) or the hERG (NM_000238) channels were cultured in Dulbecco’s Modified Eagle’s Medium (DMEM) supplemented with 10% fetal bovine serum, 1 mM pyruvic acid, 4.5 g/L glucose, 4 mM glutamine, 800 µg/mL G418, 10 U/mL penicillin and 10 μg/mL streptomycin (Gibco, Grand Island, NY). All cell lines were incubated at 37 °C in a 5% CO2 atmosphere. For electrophysiological recordings, cells were detached with trypsin and floating single cells were diluted (~300,000 cells/mL) in medium contained (in mM): […], 4 KCl, 2 CaCl2, 1 MgCl2, 5 glucose, and 10 HEPES (pH 7.4, osmolarity 298 mOsm).
(§2) Automated patch-clamp recordings were performed using the SyncroPatch 384PE from Nanion (München, Germany). […] Current inhibition percentages were measured at equilibrium after 14 min peptide application time. […]
(§3) The pharmacology of HwTxIV-Nvoc, as well as the efficiency of the released product to block hNaV channels was studied using combined automated patch-clamp and UV illumination. After 2 min of control, HwTxIV-Nvoc was added to the external buffer and effects were recorded for 100 s prior to a 250 s-duration illumination for photocleavage induction of the caged compound. […]

[2] = target: T2, hNaV1.6 (Homo sapiens, UniProt Q9UQD0); assay: Photoactivation by UV illumination combined with automated patch-clamp; settings: 100 nM, illumination 4 min, 365 nm, 45 mW/cm2; n = 14
T2 construct: expressed in transfected cells
T2 sequence (Q9UQD0 whole entry): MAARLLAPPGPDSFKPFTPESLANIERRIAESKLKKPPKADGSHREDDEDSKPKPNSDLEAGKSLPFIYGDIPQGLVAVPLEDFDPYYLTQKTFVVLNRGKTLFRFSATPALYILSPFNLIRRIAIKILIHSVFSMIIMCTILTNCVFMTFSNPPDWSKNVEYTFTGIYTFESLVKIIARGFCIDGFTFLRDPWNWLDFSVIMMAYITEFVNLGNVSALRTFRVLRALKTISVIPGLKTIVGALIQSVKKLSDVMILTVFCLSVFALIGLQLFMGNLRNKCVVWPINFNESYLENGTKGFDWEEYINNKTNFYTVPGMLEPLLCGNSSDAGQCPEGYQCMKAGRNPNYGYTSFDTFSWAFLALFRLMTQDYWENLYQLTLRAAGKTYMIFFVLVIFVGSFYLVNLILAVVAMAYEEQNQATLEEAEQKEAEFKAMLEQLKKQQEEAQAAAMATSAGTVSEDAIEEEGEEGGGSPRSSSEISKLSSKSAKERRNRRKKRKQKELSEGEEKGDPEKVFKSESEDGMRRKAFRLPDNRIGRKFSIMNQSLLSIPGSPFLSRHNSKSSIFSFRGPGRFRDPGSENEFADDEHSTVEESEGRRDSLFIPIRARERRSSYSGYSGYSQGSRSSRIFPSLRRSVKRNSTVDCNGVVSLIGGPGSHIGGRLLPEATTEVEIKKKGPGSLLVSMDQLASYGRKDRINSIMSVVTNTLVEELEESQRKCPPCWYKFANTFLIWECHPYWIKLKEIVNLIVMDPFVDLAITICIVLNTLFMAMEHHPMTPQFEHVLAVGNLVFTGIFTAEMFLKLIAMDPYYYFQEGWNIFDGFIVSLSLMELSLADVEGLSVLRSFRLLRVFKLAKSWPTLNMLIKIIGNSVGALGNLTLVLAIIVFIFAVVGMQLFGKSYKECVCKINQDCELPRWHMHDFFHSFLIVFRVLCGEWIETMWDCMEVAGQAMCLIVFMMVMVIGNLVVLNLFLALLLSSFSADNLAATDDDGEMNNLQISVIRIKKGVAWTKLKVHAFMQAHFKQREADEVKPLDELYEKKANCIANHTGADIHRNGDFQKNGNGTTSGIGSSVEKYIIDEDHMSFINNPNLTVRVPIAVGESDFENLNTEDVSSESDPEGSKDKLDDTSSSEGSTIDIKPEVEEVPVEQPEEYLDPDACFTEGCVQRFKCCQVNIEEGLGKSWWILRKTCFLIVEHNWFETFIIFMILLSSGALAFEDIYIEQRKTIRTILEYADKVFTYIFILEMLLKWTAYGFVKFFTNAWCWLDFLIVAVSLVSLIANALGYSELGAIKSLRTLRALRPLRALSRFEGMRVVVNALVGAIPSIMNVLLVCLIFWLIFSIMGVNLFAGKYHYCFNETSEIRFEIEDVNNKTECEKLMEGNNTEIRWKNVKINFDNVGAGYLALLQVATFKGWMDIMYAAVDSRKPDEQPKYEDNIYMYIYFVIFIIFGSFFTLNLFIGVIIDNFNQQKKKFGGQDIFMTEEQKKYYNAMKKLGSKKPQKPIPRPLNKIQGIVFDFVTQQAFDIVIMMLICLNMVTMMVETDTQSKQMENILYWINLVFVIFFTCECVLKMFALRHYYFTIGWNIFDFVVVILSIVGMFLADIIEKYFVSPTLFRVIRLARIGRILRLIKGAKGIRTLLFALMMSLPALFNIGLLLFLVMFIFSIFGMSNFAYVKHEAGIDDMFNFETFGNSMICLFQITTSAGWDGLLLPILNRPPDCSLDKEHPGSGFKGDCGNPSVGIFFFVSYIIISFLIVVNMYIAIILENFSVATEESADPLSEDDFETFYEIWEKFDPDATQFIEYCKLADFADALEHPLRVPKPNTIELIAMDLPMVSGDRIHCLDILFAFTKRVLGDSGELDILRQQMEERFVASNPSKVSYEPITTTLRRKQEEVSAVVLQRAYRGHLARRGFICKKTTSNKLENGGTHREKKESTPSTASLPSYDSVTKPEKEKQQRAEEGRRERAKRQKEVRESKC
Method: as §1, §2, §3

[3] = target: T3, hERG (Homo sapiens, UniProt Q12809); assay: Photocontrol of hERG current, automated patch-clamp; settings: 100 nM; 365 nm, 45 mW/cm^2, 250 s
T3 construct: expressed in transfected cells
T3 sequence (Q12809 whole entry): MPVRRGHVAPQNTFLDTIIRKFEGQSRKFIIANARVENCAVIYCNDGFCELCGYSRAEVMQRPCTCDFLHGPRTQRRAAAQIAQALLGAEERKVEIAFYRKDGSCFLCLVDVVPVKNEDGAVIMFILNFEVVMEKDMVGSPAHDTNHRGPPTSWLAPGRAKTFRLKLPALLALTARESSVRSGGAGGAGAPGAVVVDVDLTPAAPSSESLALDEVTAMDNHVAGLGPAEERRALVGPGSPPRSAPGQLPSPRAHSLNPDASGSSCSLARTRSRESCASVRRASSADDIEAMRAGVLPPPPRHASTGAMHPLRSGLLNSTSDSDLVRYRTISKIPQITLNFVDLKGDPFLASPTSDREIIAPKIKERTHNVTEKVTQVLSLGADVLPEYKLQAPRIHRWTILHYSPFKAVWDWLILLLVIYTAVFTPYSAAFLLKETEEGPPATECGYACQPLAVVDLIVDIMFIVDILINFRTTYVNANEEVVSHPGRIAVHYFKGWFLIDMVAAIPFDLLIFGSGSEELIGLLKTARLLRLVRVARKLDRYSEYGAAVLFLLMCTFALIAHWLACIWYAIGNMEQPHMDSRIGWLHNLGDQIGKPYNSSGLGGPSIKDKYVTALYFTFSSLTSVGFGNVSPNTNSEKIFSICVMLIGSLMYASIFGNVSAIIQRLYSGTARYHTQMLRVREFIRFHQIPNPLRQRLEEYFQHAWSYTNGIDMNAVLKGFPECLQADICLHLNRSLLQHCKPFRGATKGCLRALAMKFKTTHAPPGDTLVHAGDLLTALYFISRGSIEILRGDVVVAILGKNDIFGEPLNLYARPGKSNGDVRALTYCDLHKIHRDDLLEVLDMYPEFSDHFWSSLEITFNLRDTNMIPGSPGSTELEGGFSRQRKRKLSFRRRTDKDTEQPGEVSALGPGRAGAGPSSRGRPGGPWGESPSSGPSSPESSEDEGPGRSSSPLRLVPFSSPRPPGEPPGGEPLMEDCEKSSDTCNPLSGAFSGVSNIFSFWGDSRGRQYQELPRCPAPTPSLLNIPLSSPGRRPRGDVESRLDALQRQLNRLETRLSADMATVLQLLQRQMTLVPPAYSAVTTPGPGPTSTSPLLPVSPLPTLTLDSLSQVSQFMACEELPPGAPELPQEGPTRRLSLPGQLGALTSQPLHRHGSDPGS
Method: as §1, §2, §3

T1 sequence (P16389 whole entry): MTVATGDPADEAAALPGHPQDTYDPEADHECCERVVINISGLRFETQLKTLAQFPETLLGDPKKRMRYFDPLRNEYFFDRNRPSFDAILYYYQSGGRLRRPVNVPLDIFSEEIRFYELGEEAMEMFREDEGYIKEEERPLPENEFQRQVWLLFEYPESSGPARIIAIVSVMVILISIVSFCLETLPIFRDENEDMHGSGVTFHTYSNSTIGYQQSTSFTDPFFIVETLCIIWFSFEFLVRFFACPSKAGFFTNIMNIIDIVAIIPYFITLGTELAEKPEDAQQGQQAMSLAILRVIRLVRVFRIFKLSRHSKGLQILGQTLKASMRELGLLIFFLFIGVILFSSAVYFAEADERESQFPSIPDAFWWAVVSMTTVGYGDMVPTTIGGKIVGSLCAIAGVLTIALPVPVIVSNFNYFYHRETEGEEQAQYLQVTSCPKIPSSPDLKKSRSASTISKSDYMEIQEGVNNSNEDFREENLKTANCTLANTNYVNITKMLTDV

| Substance | UV-dependent effect on KV1.2 current [1] | effect of Nvoc photolysis by-product on hNaV1.6 [2] | UV-dependent effect on hERG current [3] |
| --- | --- | --- | --- |
| charybdotoxin-Nvoc | block | – | – |
| BeKm1-Nvoc: BeKm1 (hERG blocker) caged with a Nvoc protecting group on K^18 (RPTDIKCSESYQCFPVCK(Nvoc)SRFGKTNGRCVNGFCDCF; ends and bridges not checked; UniProt Q9BKB7 22-57, looked up) | – | inert | block |

Source: PMC8776733, “In vivo spatiotemporal control of voltage-gated ion channels by using photoactivatable peptidic toxins” (Nature Communications, 2022)
